This experiment deals with Ape4 (full length) of the Ape4-Nbr1 fusion protein (S. pombe). Put plainly: cryo-EM structure.

In the case of “Ape4 (full length) of the Ape4-Nbr1 fusion protein (enzyme)”, the stoichiometry N (commonly a count of units in the complex or per binding partner) stood at 12.

B1: Nbr1(53-129) of the Ape4-Nbr1 fusion protein (domain or fragment)
chain: PTLRSSSVACNTCLKIIRNDSFHCTKCFDFDVCRDCYAKQAFLHPCPKPHFVLVRSSIPSVASLTCSVNSMSVSPQS
On to B1, for which the stoichiometry N (Nbr1-ZZ1 molecules per Ape4 dodecamer) was determined as 12.

The values are drawn from publication doi:10.1101/2021.02.07.430097.
